# Data published in the supplement of paper PMC11246515.
# ± gives the standard deviation of the averaged measurements.
# Assay: total protein half-life in vivo (active degradation + dilution); higher = more stable protein
# [1] = E. coli NCM3722 delta-clpP delta-lon delta-hslV, growth: N-lim chemostat, doubling time 6 h
# [2] = wild type E. coli NCM3722, growth: C-lim chemostat, doubling time 6 h
# [3] = wild type E. coli NCM3722, growth: P-lim chemostat, doubling time 12 h
# [4] = E. coli NCM3722 delta-clpP, growth: N-lim chemostat, doubling time 6 h
# [5] = E. coli NCM3722 delta-hslV, growth: N-lim chemostat, doubling time 6 h
# [6] = E. coli NCM3722 delta-lon, growth: N-lim chemostat, doubling time 6 h
# [7] = E. coli NCM3722 delta-smpB, growth: N-lim chemostat, doubling time 6 h
# [8] = wild type E. coli NCM3722, growth: C-lim chemostat, doubling time 3 h
# [9] = wild type E. coli NCM3722, growth: C-lim chemostat, doubling time 12 h
# [10] = wild type E. coli NCM3722, growth: N-lim chemostat, doubling time 6 h
# [11] = wild type E. coli NCM3722, growth: N-lim chemostat, doubling time 12 h
# [12] = wild type E. coli NCM3722, growth: P-lim chemostat, doubling time 6 h
Sequence,total protein half-life in vivo [1] [h],total protein half-life in vivo [2] [h],total protein half-life in vivo [3] [h],total protein half-life in vivo [4] [h],total protein half-life in vivo [5] [h],total protein half-life in vivo [6] [h],total protein half-life in vivo [7] [h],total protein half-life in vivo [8] [h],total protein half-life in vivo [9] [h],total protein half-life in vivo [10] [h],total protein half-life in vivo [11] [h],total protein half-life in vivo [12] [h]
MTTLTAQQIACVYAWLAQLFSRELDDEQLTQIASAQMAEWFSLLKSEPPLTAAVNELENRIATLTVRDDARLELAADFCGLFLMTDKQAALPYASAYKQDEQEIKRLLVEAGMETSGNFNEPADHLAIYLELLSHLHFSLGEGTVPARRIDSLRQKTLTALWQWLPEFVARCRQYDSFGFYAALSQLLLVLVECDHQNR,5.85,4.24,9.47 ± 1.7,–,–,–,–,–,–,–,–,–
MLVSSNVTMQFGSKPLFENISVKFGGGNRYGLIGANGSGKSTFMKILGGDLEPTLGNVSLDPNERIGKLRQDQFAFEEFTVLDTVIMGHKELWEVKQERDRIYALPEMSEEDGYKVADLEVKYGEMDGYSAEARAGELLLGVGIPVEQHYGPMSEVAPGWKLRVLLAQALFADPDILLLDEPTNNLDIDTIRWLEQVLNERDSTMIIISHDRHFLNMVCTHMADLDYGELRVYPGNYDEYMTAATQARERLLADNAKKKAQIAELQSFVSRFSANASKSRQATSRARQIDKIKLEEVKASSRQNPFIRFEQDKKLFRNALEVEGLTKGFDNGPLFKNLNLLLEVGEKLAVLGTNGVGKSTLLKTLVGDLQPDSGTVKWSENARIGYYAQDHEYEFENDLTVFEWMSQWKQEGDDEQAVRSILGRLLFSQDDIKKPAKVLSGGEKGRMLFGKLMMQKPNILIMDEPTNHLDMESIESLNMALELYQGTLIFVSHDREFVSSLATRILEITPERVIDFSGNYEDYLRSKGIE [P0A9U3],5.14 ± 0.66,5.571 ± 0.029,8.98 ± 1.4,4.36 ± 0.29,4.35 ± 0.22,4.4 ± 0.35,4.27 ± 0.19,2.9 ± 0.28,10.1 ± 0.12,4.218 ± 0.03,6.54 ± 0.14,5.08 ± 0.85
MLRIIDTETCGLQGGIVEIASVDVIDGKIVNPMSHLVRPDRPISPQAMAIHRITEAMVADKPWIEDVIPHYYGSEWYVAHNASFDRRVLPEMPGEWICTMKLARRLWPGIKYSNMALYKTRKLNVQTPPGLHHHRALYDCYITAALLIDIMNTSGWTAEQMADITGRPSLMTTFTFGKYRGKAVSDVAERDPGYLRWLFNNLDSMSPELRLTLKHYLENT [P0AEK0],5.44 ± 2,2 ± 0.16,3.43,1.56 ± 0.12,1.2033 ± 0.0011,2.29 ± 0.6,0.987 ± 0.0014,1.24 ± 0.16,2.32,1.37 ± 0.12,2.04 ± 0.23,1.52 ± 0.42
MRRANDPQRREKIIQATLEAVKLYGIHAVTHRKIATLAGVPLGSMTYYFSGIDELLLEAFSSFTEIMSRQYQAFFSDVSDAPGACQAITDMIYSSQVATPDNMELMYQLYALASRKPLLKTVMQNWMQRSQQTLEQWFEPGTARALDAFIEGMTLHFVTDRKPLSREEILRMVERVAG,5.17 ± 0.91,4.6,6.17 ± 0.89,4.84,4.98 ± 0.17,–,4.87 ± 0.94,2.46 ± 0.18,5.18,5.11,8.57,4.06
MKNASTVSEDTASNQEPTLHRGLHNRHIQLIALGGAIGTGLFLGIGPAIQMAGPAVLLGYGVAGIIAFLIMRQLGEMVVEEPVSGSFAHFAYKYWGPFAGFLSGWNYWVMFVLVGMAELTAAGIYMQYWFPDVPTWIWAAAFFIIINAVNLVNVRLYGETEFWFALIKVLAIIGMIGFGLWLLFSGHGGEKASIDNLWRYGGFFATGWNGLILSLAVIMFSFGGLELIGITAAEARDPEKSIPKAVNQVVYRILLFYIGSLVVLLALYPWVEVKSNSSPFVMIFHNLDSNVVASALNFVILVASLSVYNSGVYSNSRMLFGLSVQGNAPKFLTRVSRRGVPINSLMLSGAITSLVVLINYLLPQKAFGLLMALVVATLLLNWIMICLAHLRFRAAMRRQGRETQFKALLYPFGNYLCIAFLGMILLLMCTMDDMRLSAILLPVWIVFLFMAFKTLRRK,5.66,–,> 16,5.51,–,–,5.23 ± 0.36,–,–,–,–,–
MAKQPGLDFQSAKGGLGELKRRLLFVIGALIVFRIGSFIPIPGIDAAVLAKLLEQQRGTIIEMFNMFSGGALSRASIFALGIMPYISASIIIQLLTVVHPTLAEIKKEGESGRRKISQYTRYGTLVLAIFQSIGIATGLPNMPGMQGLVINPGFAFYFTAVVSLVTGTMFLMWLGEQITERGIGNGISIIIFAGIVAGLPPAIAHTIEQARQGDLHFLVLLLVAVLVFAVTFFVVFVERGQRRIVVNYAKRQQGRRVYAAQSTHLPLKVNMAGVIPAIFASSIILFPATIASWFGGGTGWNWLTTISLYLQPGQPLYVLLYASAIIFFCFFYTALVFNPRETADNLKKSGAFVPGIRPGEQTAKYIDKVMTRLTLVGALYITFICLIPEFMRDAMKVPFYFGGTSLLIVVVVIMDFMAQVQTLMMSSQYESALKKANLKGYGR [P0AGA2],4.966 ± 0.022,5.04 ± 0.31,8.06 ± 0.49,–,5.77 ± 1,4.51 ± 0.048,5.24 ± 1,3.3 ± 0.39,9.27 ± 3,4.83 ± 0.52,8.18 ± 0.17,4.94 ± 0.68
